Test results: patent publication US9618524B2, “Method, composition, isolation and identification of a plaque particle and related biomarker” (Plaxgen Inc., priority 2012, dated 2017)

B1: Isoform 2 of Ficolin-3 (protein)
chain: QEHPSCPGPRELEASKVVLLPSCPGAPGSPGEKGAPGPQGPPGPPGKMGPKGEPGPRNCRELLSQGATLSGWYHLCLPEGRALPVFCDMDTEGGGWLVFQRRQDGSVDFFRSWSSYRAGFGNQESEFWLGNENLHQLTLQGNWELRVELEDFNGNRTFAHYATFRLLGEVDHYQLALGKFSEGTAGDSLSLHSGRPFTTYDADHDSSNSNCAVIVHGAWWYASCYRSNLNGRYAVSEAAAHKYGIDWASGRGVGHPYRRVRMMLR
B2: Ig heavy chain V-III region WEA (protein)
chain: EVQLVESGGGLVQPGGSLRLSCAASGFTFSSYEMNWVRQAPGKGLEWVSYISSSGSTIYYADSVKGRFTISRDNAKNSLYLQMNSLRAEDTAVYYCAR
B3: Isoform C of Fibulin-1 (protein)
chain: DVLLEACCADGHRMATHQKDCSLPYATESKECRMVQEQCCHSQLEELHCATGISLANEQDRCATPHGDNASLEATFVKRCCHCCLLGRAAQAQGQSCEYSLMVGYQCGQVFQACCVKSQETGDLDVGGLQETDKIIEVEEEQEDPYLNDRCRGGGPCKQQCRDTGDEVVCSCFVGYQLLSDGVSCEDVNECITGSHSCRLGESCINTVGSFRCQRDSSCGTGYELTEDNSCKDIDECESGIHNCLPDFICQNTLGSFRCRPKLQCKSGFIQDALGNCIDINECLSISAPCPIGHTCINTEGSYTCQKNVPNCGRGYHLNEEGTRCVDVDECAPPAEPCGKGHRCVNSPGSFRCECKTGYYFDGISRMCVDVNECQRYPGRLCGHKCENTLGSYLCSCSVGFRLSVDGRSCEDINECSSSPCSQECANVYGSYQCYCRRGYQLSDVDGVTCEDIDECALPTGGHICSYRCINIPGSFQCSCPSSGYRLAPNGRNCQDIDECVTGIHNCSINETCFNIQGGFRCLAFECPENYRRSAATRCERLPCHENRECSKLPLRITYYHLSFPTNIQAPAVVFRMGPSSAVPGDSMQLAITGGNEEGFFTTRKVSPHSGVVALTKPVPEPRDLLLTVKMDLSRHGTVSSFVAKLFIFVSAEL
B4: Platelet factor 4 variant (protein)
chain: FARAEAEEDGDLQCLCVKTTSQVRPRHITSLEVIKAGPHCPTAQLIATLKNGRKICLDLQALLYKKIIKEHLES
B5: Protein S100-A7 (protein)
chain: SNTQAERSIIGMIDMFHKYTRRDDKIEKPSLLTMMKENFPNFLSACDKKGTNYLADVFEKKDKNEDKKIDFSEFLSLLGDIATDYHKQSHGAAPCSGGSQ
B6: Isoform B of Fibulin-1 (protein)
chain: DVLLEACCADGHRMATHQKDCSLPYATESKECRMVQEQCCHSQLEELHCATGISLANEQDRCATPHGDNASLEATFVKRCCHCCLLGRAAQAQGQSCEYSLMVGYQCGQVFQACCVKSQETGDLDVGGLQETDKIIEVEEEQEDPYLNDRCRGGGPCKQQCRDTGDEVVCSCFVGYQLLSDGVSCEDVNECITGSHSCRLGESCINTVGSFRCQRDSSCGTGYELTEDNSCKDIDECESGIHNCLPDFICQNTLGSFRCRPKLQCKSGFIQDALGNCIDINECLSISAPCPIGHTCINTEGSYTCQKNVPNCGRGYHLNEEGTRCVDVDECAPPAEPCGKGHRCVNSPGSFRCECKTGYYFDGISRMCVDVNECQRYPGRLCGHKCENTLGSYLCSCSVGFRLSVDGRSCEDINECSSSPCSQECANVYGSYQCYCRRGYQLSDVDGVTCEDIDECALPTGGHICSYRCINIPGSFQCSCPSSGYRLAPNGRNCQDIDECVTGIHNCSINETCFNIQGGFRCLAFECPENYRRSAATQKSKKGRQNTPAGSSKEDCRVLPWKQGLEDTHLDA
B7: Junction plakoglobin (protein)
chain: MEVMNLMEQPIKVTEWQQTYTYDSGIHSGANTCVPSVSSKGIMEEDEACGRQYTLKKTTTYTQGVPPSQGDLEYQMSTTARAKRVREAMCPGVSGEDSSLLLATQVEGQATNLQRLAEPSQLLKSAIVHLINYQDDAELATRALPELTKLLNDEDPVVVTKAAMIVNQLSKKEASRRALMGSPQLVAAVVRTMQNTSDLDTARCTTSILHNLSHHREGLLAIFKSGGIPALVRMLSSPVESVLFYAITTLHNLLLYQEGAKMAVRLADGLQKMVPLLNKNNPKFLAITTDCLQLLAYGNQESKLIILANGGPQALVQIMRNYSYEKLLWTTSRVLKVLSVCPSNKPAIVEAGGMQALGKHLTSNSPRLVQNCLWTLRNLSDVATKQEGLESVLKILVNQLSVDDVNVLTCATGTLSNLTCNNSKNKTLVTQNSGVEALIHAILRAGDKDDITEPAVCALRHLTSRHPEAEMAQNSVRLNYGIPAIVKLLNQPNQWPLVKATIGLIRNLALCPANHAPLQEAAVIPRLVQLLVKAHQDAQRHVAAGTQQPYTDGVRMEEIVEGCTGALHILARDPMNRMEIFRLNTIPLFVQLLYSSVENIQRVAAGVLCELAQDKEAADAIDAEGASAPLMELLHSRNEGTATYAAAVLFRISEDKNPDYRKRVSVELTNSLFKHDPAAWEAAQSMIPINEPYGDDMDATYRPMYSSDVPLDPLEMHMDMDGDYPIDTYSDGLRPPYPTADHMLA
B8: Phosphatidylinositol-glycan-specific phospholipase D (protein)
chain: CGLSTHVEIGHRALEFLQLHNGRVNYRELLLEHQDAYQAGIVFPDCFYPSICKGGKFHDVSESTHWTPFLNASVHYIRENYPLPWEKDTEKLVAFLFGITSHMAADVSWHSLGLEQGFLRTMGAIDFHGSYSEAHSAGDFGGDVLSQFEFNFNYLARRWYVPVKDLLGIYEKLYGRKVITENVIVDCSHIQFLEMYGEMLAVSKLYPTYSTKSPFLVEQFQEYFLGGLDDMAFWSTNIYHLTSFMLENGTSDCNLPENPLFIACGGQQNHTQGSKMQKNDFHRNLTTSLTESVDRNINYTERGVFFSVNSWTPDSMSFIYKALERNIRTMFIGGSQLSQKHVSSPLASYFLSFPYARLGWAMTSADLNQDGHGDLVVGAPGYSRPGHIHIGRVYLIYGNDLGLPPVDLDLDKEAHRILEGFQPSGRFGSALAVLDFNVDGVPDLAVGAPSVGSEQLTYKGAVYVYFGSKQGGMSSSPNITISCQDIYCNLGWTLLAADVNGDSEPDLVIGSPFAPGGGKQKGIVAAFYSGPSLSDKEKLNVEAANWTVRGEEDFSWFGYSLHGVTVDNRTLLLVGSPTWKNASRLGHLLHIRDEKKSLGRVYGYFPPNGQSWFTISGDKAMGKLGTSLSSGHVLMNGTLKQVLLVGAPTYDDVSKVAFLTVTLHQGGATRMYALTSDAQPLLLSTFSGDRRFSRFGGVLHLSDLDDDGLDEIIMAAPLRIADVTSGLIGGEDGRVYVYNGKETTLGDMTGKCKSWITPCPEEKAQYVLISPEASSRFGSSLITVRSKAKNQVVIAAGRSSLGARLSGALHVYSLGSD
B9: Tetranectin (protein)
chain: EPPTQKPKKIVNAKKDVVNTKMFEELKSRLDTLAQEVALLKEQQALQTVCLKGTKVHMKCFLAFTQTKTFHEASEDCISRGGTLGTPQTGSENDALYEYLRQSVGNEAEIWLGLNDMAAEGTWVDMTGARIAYKNWETEITAQPDGGKTENCAVLSGAANGKWFDKRCRDQLPYICQFGIV

Assays:
Assay in all cases: Mass spectroscopy proteomics, semi-quantitative binding affinity of serum proteins (plaqueproteome, Table 2)
Conditions in all cases: higher number = stronger affinity
[1] = test system: Low density cholesterol (Chl small) plaque particles; set-up: species or system human
Outline: (§1)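 Read-out is MS/MS protein identification (Sequest, strict trypsin, 20 ppm parent tolerance; Scaffold probabilities) of serum proteins bound to flow-sorted cholesterol plaque particles. These particles formed when 50% atherosclerotic serum was incubated with 30 μg cholesterol aggregates for 1 hr at 37° C.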

[2] = test system: High Density cholesterol (Chl Large) plaque particles; set-up: species or system human
Outline: as §1

[3] = molecular target: T1, Abeta-42 plaque particles (Homo sapiens, UniProt P05067)
T1 construct: Abeta 1-42
Outline: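 AD patient serum or plasma (50% in PBS) was incubated with Abeta-42 aggregates (30 μg) for 1 h at 37 °C, then stained with Thioflavin S for 30 min. Labeled particles were FACS-sorted, trypsin/Lys-C digested overnight and analyzed by MS/MS. Sequest searched human UniProt; Scaffold/Protein Prophet validated the identifications.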

Tau plaque particles = test system: Tau plaque particles; set-up: species or system human
Outline: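 Serum or plasma proteins captured on Thioflavin S-labelled Tau plaque particles (Tau-74, Tau-275 oligomers preformed in PBS at 37° C for 2 h; 1 h co-incubation at 37° C) were isolated by FACS sorting, then tryptically digested and identified by MS/MS (Sequest, human UniProt, strict trypsin).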

[4] = molecular target: T2, alpha-synuclein plaque particles (Homo sapiens, UniProt P37840)
T2 construct: 140 amino acids polypeptide
Outline: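 AD-subject plasma or serum (800 μL of 50%) mixed with 30 μg preformed alpha-synuclein aggregates for 1 h at 37 °C; Thioflavin S-positive particles isolated by flow sorting. After reduction, acrylamide alkylation and overnight tryptic digestion, serum proteins identified by MS/MS with Sequest and Scaffold.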

| Molecule | Semi-quantitative analysis of proteins binding to different plaque particles: Chl small [1] | Semi-quantitative analysis of proteins binding to different plaque particles: Chl Large [2] | Semi-quantitative analysis of proteins binding to different plaque particles: Abeta-42 [3] | Semi-quantitative analysis of proteins binding to different plaque particles: Tau (Tau plaque particles) | Semi-quantitative analysis of proteins binding to different plaque particles: Synuclein [4] |
| --- | --- | --- | --- | --- | --- |
| B1 | 0 | 0 | 0 | 0 | 1 |
| B2 | 1 | 1 | 2 | 1 | 1 |
| B3 | 2 | 1 | 0 | 0 | 1 |
| B4 | 0 | 1 | 0 | 0 | 1 |
| B5 | 0 | 0 | 2 | 0 | 0 |
| B6 | 3 | 3 | 0 | 0 | 1 |
| B7 | 0 | 0 | 2 | 0 | 0 |
| B8 | 1 | 1 | 0 | 2 | 0 |
| B9 | 1 | 0 | 0 | 0 | 0 |
